Measured values from IntAct's records for PubMed 26751641.

What was measured:
chd1_human CHD1 [1] = biological target: chd1_human CHD1 (UniProt O14646)
chd1_human CHD1 [2] = biological target: chd1_human CHD1 (UniProt O14646); remark: listed apart in the source

Sequence of UniProt O14646 (O14646 whole entry): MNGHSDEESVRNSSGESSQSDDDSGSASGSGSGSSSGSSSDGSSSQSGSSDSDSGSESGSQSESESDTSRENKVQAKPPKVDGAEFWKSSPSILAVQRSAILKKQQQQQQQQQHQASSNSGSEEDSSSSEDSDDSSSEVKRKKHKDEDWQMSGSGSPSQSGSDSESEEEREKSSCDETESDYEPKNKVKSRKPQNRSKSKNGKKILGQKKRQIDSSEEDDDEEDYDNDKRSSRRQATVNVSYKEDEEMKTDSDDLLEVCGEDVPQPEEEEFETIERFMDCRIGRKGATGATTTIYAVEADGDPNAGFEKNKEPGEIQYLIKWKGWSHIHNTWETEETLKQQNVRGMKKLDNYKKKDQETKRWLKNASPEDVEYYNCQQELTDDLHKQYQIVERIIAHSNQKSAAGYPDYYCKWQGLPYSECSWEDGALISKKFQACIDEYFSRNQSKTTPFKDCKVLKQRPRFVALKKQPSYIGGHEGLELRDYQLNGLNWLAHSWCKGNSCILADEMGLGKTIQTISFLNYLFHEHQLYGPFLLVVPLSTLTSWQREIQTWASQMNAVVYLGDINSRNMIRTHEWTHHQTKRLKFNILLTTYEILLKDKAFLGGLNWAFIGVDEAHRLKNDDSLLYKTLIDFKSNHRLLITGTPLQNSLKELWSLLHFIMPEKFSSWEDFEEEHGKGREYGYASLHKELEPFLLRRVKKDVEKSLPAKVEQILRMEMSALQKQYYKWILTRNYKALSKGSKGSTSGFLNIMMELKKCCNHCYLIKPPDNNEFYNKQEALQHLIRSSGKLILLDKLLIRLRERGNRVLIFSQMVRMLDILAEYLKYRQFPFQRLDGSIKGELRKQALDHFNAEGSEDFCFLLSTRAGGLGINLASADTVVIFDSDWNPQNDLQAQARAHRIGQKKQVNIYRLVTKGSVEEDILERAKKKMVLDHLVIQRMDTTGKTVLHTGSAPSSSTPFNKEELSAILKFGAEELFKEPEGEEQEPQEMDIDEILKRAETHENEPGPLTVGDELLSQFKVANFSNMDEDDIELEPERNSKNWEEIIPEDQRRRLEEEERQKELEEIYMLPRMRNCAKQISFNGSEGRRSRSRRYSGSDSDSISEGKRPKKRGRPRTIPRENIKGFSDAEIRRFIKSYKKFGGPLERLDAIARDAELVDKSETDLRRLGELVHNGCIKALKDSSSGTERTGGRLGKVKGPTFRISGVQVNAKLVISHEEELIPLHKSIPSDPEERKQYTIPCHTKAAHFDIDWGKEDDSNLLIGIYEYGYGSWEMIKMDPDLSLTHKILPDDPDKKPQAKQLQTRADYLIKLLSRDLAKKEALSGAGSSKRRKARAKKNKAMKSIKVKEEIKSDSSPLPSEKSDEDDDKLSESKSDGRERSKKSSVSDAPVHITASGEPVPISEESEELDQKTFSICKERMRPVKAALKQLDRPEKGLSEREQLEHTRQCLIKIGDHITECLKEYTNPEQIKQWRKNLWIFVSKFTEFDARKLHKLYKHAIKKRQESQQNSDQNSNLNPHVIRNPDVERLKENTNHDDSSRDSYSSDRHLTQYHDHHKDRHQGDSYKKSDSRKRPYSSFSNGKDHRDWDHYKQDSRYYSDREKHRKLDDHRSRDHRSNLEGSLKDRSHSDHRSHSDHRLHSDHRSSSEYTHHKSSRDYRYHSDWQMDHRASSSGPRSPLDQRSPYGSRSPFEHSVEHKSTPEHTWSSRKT

effect of a mutation on the interaction (chd1_human CHD1 [1])	effect of a mutation on the interaction (chd1_human CHD1 [2])	Substance
disrupting interaction strength	–	Lysine-specific histone demethylase 1A (Homo sapiens) (from UniProt O60341-1) R113A
–	disrupting interaction strength	Lysine-specific histone demethylase 1A (Homo sapiens) (from UniProt O60341-1) K114A
